Consider one molecule from article PMC7732827, “Autoregulation of yeast ribosomal proteins discovered by efficient search for feedback regulation”.

The data set deals with Rpl1B-HIS (Saccharomyces cerevisiae, UniProt P0CX44 1-217). The experiment in a line: EMSA; 20 mM Mg2+; 400 nM RNA, 0.1-1 ug protein in 10 ul; 50 mM Tris-HCl pH 8.5, 350 mM KCl, 20 mM MgCl2, 0.1% NP-40, 10% glycerol, 30 min at 4 C; 7.5% Tris-glycine PAGE in the cold room. The following applies: protein: recombinant; tags: C-terminal His6 (HHHHHH); label: none (SYBR Green I stain); two hairpins (HP1, HP2), predicted.
Sequence of Rpl1B-HIS (P0CX44 whole entry): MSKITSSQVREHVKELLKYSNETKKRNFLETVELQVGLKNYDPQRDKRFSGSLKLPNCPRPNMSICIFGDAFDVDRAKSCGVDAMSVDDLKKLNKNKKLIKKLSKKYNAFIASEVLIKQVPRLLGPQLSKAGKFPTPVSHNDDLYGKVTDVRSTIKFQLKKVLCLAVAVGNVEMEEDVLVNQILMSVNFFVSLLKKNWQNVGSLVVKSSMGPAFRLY

B1: RPL1B-UTR RNA, synthetic (structured_RNA)
RNA: AUAGAACUAGUCGCAAGCCUCACGGACCACCAAAUACUUUGGAAGACUAAUUACAUAUCAUAAA
As for B1, the binding result was “binds”.
